From article doi:10.1101/2021.01.28.428610

Molecular target: Cg1978-C-His (Gip with a C-terminal His tag) (Corynebacterium glutamicum ATCC 13032 (CGP3 prophage))
Test: SPR

Substance: GyrA-N-Strep (C. glutamicum DNA gyrase subunit A with an N-terminal Strep-tag) (from UniProt Q8NUC6 1-856) (natural protein)
- Kd: 5.4 nM
- koff: 0.00092 s⁻¹
- kon: 97000 M⁻¹ s⁻¹
